The record followed here is paper PMC5674511, “Increase of enzyme activity through specific covalent modification with fragments” (Chemical Science, 2017).

Substrate in the data set: CC(=O)N[C@H]1[C@H](Oc2ccc3c(C)cc(=O)oc3c2)O[C@H](CO)[C@@H](O)[C@@H]1O
The data set is described as follows: fluorescence, 4MU release, Michaelis-Menten. Format: biochemical, Bacteroides thetaiotaomicron. Particulars: unmodified wild-type enzyme. The text has this: fluorescence, 4MU release, Michaelis-Menten on BtGH84

B1: BtGH84 (Bacteroides thetaiotaomicron VPI-5482) (protein)
chain: QNVSLQPPPQQLIVQNKTIDLPAVYQLNGGEEANPHAVKVLKELLSGKQSSKKGMLISIGEKGDKSVRKYSRQIPDHKEGYYLSVNEKEIVLAGNDERGTYYALQTFAQLLKDGKLPEVEIKDYPSVRYRGVVEGFYGTPWSHQARLSQLKFYGKNKMNTYIYGPKDDPYHSAPNWRLPYPDKEAAQLQELVAVANENEVDFVWAIHPGQDIKWNKEDRDLLLAKFEKMYQLGVRSFAVFFDDISGEGTNPQKQAELLNYIDEKFAQVKPDINQLVMCPTEYNKSWSNPNGNYLTTLGDKLNPSIQIMWTGDRVISDITRDGISWINERIKRPAYIWWNFPVSDYVRDHLLLGPVYGNDTTIAKEMSGFVTNPMEHAESSKIAIYSVASYAWNPAKYDTWQTWKDAIRTILPSAAEELECFAMHNSDLGPNGHGYRREESMDIQPAAERFLKAFKEGKNYDKADFETLQYTFERMKESADILLMNTENKPLIVEITPWVHQFKLTAEMGEEVLKMVEGRNESYFLRKYNHVKALQQQMFYIDQTSNQNPYQPGVKTATRVIKPLIDRTFATVVKFFNQKFNAHLDATTDYMPHKMISNVEQIKNLPLQVKANRVLISPANEVVKWAAGNSVEIELDAIYPGENIQINFGKDAPCTWGRLEISTDGKEWKTVDLKQKESRLSAGLQKAPVKFVRFTNVSDEEQQVYLRQFVLTIEKK
notes: recombinant purified enzyme
One may read the Km as the concentration of substrate that gives half-maximal velocity. By kcat is commonly meant the number of substrate molecules converted per active site and unit of time at saturation. What is called kcat/Km is the second-order rate constant that governs catalysis at low substrate concentration. As for B1, the Km stood at 1460 ± 220 µM, the turnover number (kcat) was 67 ± 5 s⁻¹ and the catalytic efficiency (kcat/Km) turned out to be 46000 ± 5900 M⁻¹ s⁻¹.
